As usually defined, the pKd is −log10 of the Kd, conventionally taken in molar units.

pKd: −log10 of the molar value. Bounds are passed on as bounds.

Data on 2 substances can be found in PMC4512291.

For assay [1], the target named is E6 F47R 4C4S, a soluble mutant of HPV16 E6 (HPV16). The assay can be described thus: ITC. On the technique in general: ITC needs no label: the signal is the heat of the interaction.
Another assay deals with e6ap peptide. The assay is described as follows: ITC.

As for “LxxLL peptide (E6-binding LxxLL motif of E6AP)”, the negative-log Kd (pKd) in assay [1] is 4.38.

“E6 F47R 4C4S, a soluble mutant of HPV16 E6 (natural protein)” had a pKd with e6ap peptide of less than 5.00.
